One may read the Kd as a measure of binding affinity in units of concentration. A low value points to higher affinity. Broadly, the Ki is the dissociation constant of the complex between target and ligand, obtained from inhibition or displacement.

The target in experiment [1] is mortalin (HSPA9) (UniProt P38646). The experiment in a line: MST.
Experiment [2] addresses ferrous cytochrome c (Fe2+), horse heart (horse, UniProt P00004 1-105, heme iron ferrous (Fe^2+)). The experiment in a line: enzyme inhibition.
Experiment [3] deals with mortalin (HSPA9) (UniProt P38646 47-679, Alexa 647 dye (NanoTemper) / NT-647 label). The experiment in a line: MST.
Sequence of mortalin (HSPA9) (UniProt P38646 47-679, Alexa 647 dye (NanoTemper) / NT-647 label) (P38646 47-679): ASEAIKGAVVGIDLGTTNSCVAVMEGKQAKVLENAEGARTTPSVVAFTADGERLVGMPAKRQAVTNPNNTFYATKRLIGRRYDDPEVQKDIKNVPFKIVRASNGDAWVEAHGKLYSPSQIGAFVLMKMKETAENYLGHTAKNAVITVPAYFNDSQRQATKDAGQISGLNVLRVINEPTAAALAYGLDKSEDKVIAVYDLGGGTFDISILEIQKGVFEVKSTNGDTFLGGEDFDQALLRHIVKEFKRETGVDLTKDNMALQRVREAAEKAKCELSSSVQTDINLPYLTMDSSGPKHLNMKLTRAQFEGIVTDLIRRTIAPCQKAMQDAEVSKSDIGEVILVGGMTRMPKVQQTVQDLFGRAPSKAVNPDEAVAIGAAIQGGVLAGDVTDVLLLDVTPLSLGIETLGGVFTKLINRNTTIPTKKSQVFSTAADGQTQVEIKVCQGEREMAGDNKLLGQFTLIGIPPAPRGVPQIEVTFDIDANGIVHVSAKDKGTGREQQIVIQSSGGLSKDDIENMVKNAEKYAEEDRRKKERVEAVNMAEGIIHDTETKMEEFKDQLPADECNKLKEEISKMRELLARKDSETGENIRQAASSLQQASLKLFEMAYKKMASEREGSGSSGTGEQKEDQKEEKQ
In experiment [4] the target is H26Y cytochrome c (globular structure, high peroxidase activity) (UniProt P00004). The experiment in a line: enzyme inhibition.

Sequence of mortalin (HSPA9) (UniProt P38646) (P38646 47-679): as above
Sequence of ferrous cytochrome c (Fe2+), horse heart (P00004 whole entry): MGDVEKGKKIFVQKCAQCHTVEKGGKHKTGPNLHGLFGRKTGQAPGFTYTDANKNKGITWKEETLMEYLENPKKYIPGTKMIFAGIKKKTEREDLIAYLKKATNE

“Bcl-2 (from UniProt P10415 1-239) (natural protein)” yielded a Kd with mortalin (HSPA9) [1] of 171 nM.

B1: full-length human p66Shc (wildtype) (natural protein, UniProt P29353-1 1-583, looked up)
chain: MDLLPPKPKYNPLRNESLSSLEEGASGSTPPEELPSPSASSLGPILPPLPGDDSPTTLCSFFPRMSNLRLANPAGGRPGSKGEPGRAADDGEGIVGAAMPDSGPLPLLQDMNKLSGGGGRRTRVEGGQLGGEEWTRHGSFVNKPTRGWLHPNDKVMGPGVSYLVRYMGCVEVLQSMRALDFNTRTQVTREAISLVCEAVPGAKGATRRRKPCSRPLSSILGRSNLKFAGMPITLTVSTSSLNLMAADCKQIIANHHMQSISFASGGDPDTAEYVAYVAKDPVNQRACHILECPEGLAQDVISTIGQAFELRFKQYLRNPPKLVTPHDRMAGFDGSAWDEEEEEPPDHQYYNDFPGKEPPLGGVVDMRLREGAAPGAARPTAPNAQTPSHLGATLPVGQPVGGDPEVRKQMPPPPPCPGRELFDDPSYVNVQNLDKARQAVGGAGPPNPAINGSAPRDLFDMKPFEDALRVPPPPQSVSMAEQLRGEPWFHGKLSRREAEALLQLNGDFLVRESTTTPGQYVLTGLQSGQPKHLLLVDPEGVVRTKDHRFESVSHLISYHMDNHLPIISAGSELCLQQPVERKL
modifications: Alexa 647 label (only in the MST with cytochrome c, where p66Shc was the labelled protein)
Take B1: the Ki in experiment [2] is 1430 nM; in experiment [4], 3540 nM. In addition, the Kd in the experiment with mortalin (HSPA9) [3] was 858 nM.

Source of the values: doi:10.1101/2022.04.14.487897 (bioRxiv, 2022).
